The results in this text go back to patent US20140363428A1 (Chugai, published 2014).

Usually Kd stands for the equilibrium constant for the complex coming apart. Lower therefore signals higher affinity.

To fix the notation:
B1: IgG1-F1340 (antibody)
heavy: QVQLQESGPGLVKPSETLSLTCAVSGHSISHDHAWSWVRQPPGEGLEWIGFISYSGITNYNPSLQGRVTISRDNSKNTLYLQMNSLRAEDTAVYYCARSLARTTAMDYWGEGTLVTVSSASTKGPSVFPLAPSSKSTSGGTAALGCLVKDYFPEPVTVSWNSGALTSGVHTFPAVLQSSGLYSLSSVVTVPSSSLGTQTYICNVNHKPSNTKVDKKVEPKSCDKTHTCPPCPAPELRGGPKVFLFPPKPKDTLYITREPEVTCVVVDVSHEDPEVKFNWYVDGVEVHNAKTKPREEQYNSTYRVVSVLTVLHQDWLNGKEYKCKVSNKALPAPIEKTISKAKGQPREPQVYTLPPSRDELTKNQVSLTCLVKGFYPSDIAVEWESNGQPENNYKTTPPVLDSDGSFFLYSKLTVDKSRWQQGNVFSCSVMHEALHYHVTKKELSLSP
light: not shown
notes: EU numbering; copies: 2 + 2
B2: IgG1-F1348 (antibody)
heavy: QVQLQESGPGLVKPSETLSLTCAVSGHSISHDHAWSWVRQPPGEGLEWIGFISYSGITNYNPSLQGRVTISRDNSKNTLYLQMNSLRAEDTAVYYCARSLARTTAMDYWGEGTLVTVSSASTKGPSVFPLAPSSKSTSGGTAALGCLVKDYFPEPVTVSWNSGALTSGVHTFPAVLQSSGLYSLSSVVTVPSSSLGTQTYICNVNHKPSNTKVDKKVEPKSCDKTHTCPPCPAPELRRGPKVFLFPPKPKDTLYITREPEVTCVVVDVSHEDPEVKFNWYVDGVEVHNAKTKPREEQYNSTYRVVSVLTVLHQDWLNGKEYKCKVSNKALPAPIEKTISKAKGQPREPQVYTLPPSRDELTKNQVSLTCLVKGFYPSDIAVEWESNGQPENNYKTTPPVLDSDGSFFLYSKLTVDKSRWQQGNVFSCSVMHEALHYHVTKKELSLSP
light: not shown
notes: EU numbering; copies: 2 + 2
B3: IgG1-F1342 (antibody)
heavy: QVQLQESGPGLVKPSETLSLTCAVSGHSISHDHAWSWVRQPPGEGLEWIGFISYSGITNYNPSLQGRVTISRDNSKNTLYLQMNSLRAEDTAVYYCARSLARTTAMDYWGEGTLVTVSSASTKGPSVFPLAPSSKSTSGGTAALGCLVKDYFPEPVTVSWNSGALTSGVHTFPAVLQSSGLYSLSSVVTVPSSSLGTQTYICNVNHKPSNTKVDKKVEPKSCDKTHTCPPCPAPELRGGPKVFLFPPKPKDTLYISREPEVTCVVVDVSHEDPEVKFNWYVDGVEVHNAKTKPREEQYNSTYRVVSVLTVLHQDWLNGKEYKCKVSNKALPAPIEKTISKAKGQPREPQVYTLPPSRDELTKNQVSLTCLVKGFYPSDIAVEWESNGQPENNYKTTPPVLDSDGSFFLYSKLTVDKSRWQQGNVFSCSVMHEALHYHTTKKELSLSP
light: not shown
notes: EU numbering; copies: 2 + 2
B4: IgG1-F1341 (antibody)
heavy: QVQLQESGPGLVKPSETLSLTCAVSGHSISHDHAWSWVRQPPGEGLEWIGFISYSGITNYNPSLQGRVTISRDNSKNTLYLQMNSLRAEDTAVYYCARSLARTTAMDYWGEGTLVTVSSASTKGPSVFPLAPSSKSTSGGTAALGCLVKDYFPEPVTVSWNSGALTSGVHTFPAVLQSSGLYSLSSVVTVPSSSLGTQTYICNVNHKPSNTKVDKKVEPKSCDKTHTCPPCPAPELRGGPKVFLFPPKPKDTLYITRTPEVTCVVVDVSHEDPEVKFNWYVDGVEVHNAKTKPREEQYNSTYRVVSVLTVLHQDWLNGKEYKCKVSNKALPAPIEKTISKAKGQPREPQVYTLPPSRDELTKNQVSLTCLVKGFYPSDIAVEWESNGQPENNYKTTPPVLDSDGSFFLYSKLTVDKSRWQQGNVFSCSVMHEALHYHTTKKELSLSP
light: not shown
notes: EU numbering; copies: 2 + 2
B5: IgG1-F1345 (antibody)
heavy: QVQLQESGPGLVKPSETLSLTCAVSGHSISHDHAWSWVRQPPGEGLEWIGFISYSGITNYNPSLQGRVTISRDNSKNTLYLQMNSLRAEDTAVYYCARSLARTTAMDYWGEGTLVTVSSASTKGPSVFPLAPSSKSTSGGTAALGCLVKDYFPEPVTVSWNSGALTSGVHTFPAVLQSSGLYSLSSVVTVPSSSLGTQTYICNVNHKPSNTKVDKKVEPKSCDKTHTCPPCPAPELRRGPKVFLFPPKPKDTLYISRTPEVTCVVVDVSHEDPEVKFNWYVDGVEVHNAKTKPREEQYNSTYRVVSVLTVLHQDWLNGKEYKCKVSNKALPAPIEKTISKAKGQPREPQVYTLPPSRDELTKNQVSLTCLVKGFYPSDIAVEWESNGQPENNYKTTPPVLDSDGSFFLYSKLTVDKSRWQQGNVFSCSVMHEALHYHVTKKELSLSP
light: not shown
notes: EU numbering; copies: 2 + 2
B6: IgG1-F1349 (antibody)
heavy: QVQLQESGPGLVKPSETLSLTCAVSGHSISHDHAWSWVRQPPGEGLEWIGFISYSGITNYNPSLQGRVTISRDNSKNTLYLQMNSLRAEDTAVYYCARSLARTTAMDYWGEGTLVTVSSASTKGPSVFPLAPSSKSTSGGTAALGCLVKDYFPEPVTVSWNSGALTSGVHTFPAVLQSSGLYSLSSVVTVPSSSLGTQTYICNVNHKPSNTKVDKKVEPKSCDKTHTCPPCPAPELRGGPKVFLFPPKPKDTLYISRTPEVTCVVVDVSHEDPEVKFNWYVDGVEVHNAKTKPREEQYNSTYRVVSVLTVLHQDWLNGKEYKCKVSNKALPAPIEKTISKAKGQPREPQVYTLPPSRDELTKNQVSLTCLVKGFYPSDIAVEWESNGQPENNYKTTPPVLDSDGSFFLYSKLTVDKSRWQQGNVFSCSVMHEALHYHTTRKELSLSP
light: not shown
notes: EU numbering; copies: 2 + 2
B7: IgG1-F1347 (antibody)
heavy: QVQLQESGPGLVKPSETLSLTCAVSGHSISHDHAWSWVRQPPGEGLEWIGFISYSGITNYNPSLQGRVTISRDNSKNTLYLQMNSLRAEDTAVYYCARSLARTTAMDYWGEGTLVTVSSASTKGPSVFPLAPSSKSTSGGTAALGCLVKDYFPEPVTVSWNSGALTSGVHTFPAVLQSSGLYSLSSVVTVPSSSLGTQTYICNVNHKPSNTKVDKKVEPKSCDKTHTCPPCPAPELRRGPKVFLFPPKPKDTLYISREPEVTCVVVDVSHEDPEVKFNWYVDGVEVHNAKTKPREEQYNSTYRVVSVLTVLHQDWLNGKEYKCKVSNKALPAPIEKTISKAKGQPREPQVYTLPPSRDELTKNQVSLTCLVKGFYPSDIAVEWESNGQPENNYKTTPPVLDSDGSFFLYSKLTVDKSRWQQGNVFSCSVMHEALHYHVTKKELSLSP
light: not shown
notes: EU numbering; copies: 2 + 2
B8: IgG1-F1350 (antibody)
heavy: QVQLQESGPGLVKPSETLSLTCAVSGHSISHDHAWSWVRQPPGEGLEWIGFISYSGITNYNPSLQGRVTISRDNSKNTLYLQMNSLRAEDTAVYYCARSLARTTAMDYWGEGTLVTVSSASTKGPSVFPLAPSSKSTSGGTAALGCLVKDYFPEPVTVSWNSGALTSGVHTFPAVLQSSGLYSLSSVVTVPSSSLGTQTYICNVNHKPSNTKVDKKVEPKSCDKTHTCPPCPAPELRGGPKVFLFPPKPKDTLYISRTPEVTCVVVDVSHEDPEVKFNWYVDGVEVHNAKTKPREEQYNSTYRVVSVLTVLHQDWLNGKEYKCKVSNKALPAPIEKTISKAKGQPREPQVYTLPPSRDELTKNQVSLTCLVKGFYPSDIAVEWESNGQPENNYKTTPPVLDSDGSFFLYSKLTVDKSRWQQGNVFSCSVMHEALHYHFTKKELSLSP
light: not shown
notes: EU numbering; copies: 2 + 2
B9: IgG1-F1343 (antibody)
heavy: QVQLQESGPGLVKPSETLSLTCAVSGHSISHDHAWSWVRQPPGEGLEWIGFISYSGITNYNPSLQGRVTISRDNSKNTLYLQMNSLRAEDTAVYYCARSLARTTAMDYWGEGTLVTVSSASTKGPSVFPLAPSSKSTSGGTAALGCLVKDYFPEPVTVSWNSGALTSGVHTFPAVLQSSGLYSLSSVVTVPSSSLGTQTYICNVNHKPSNTKVDKKVEPKSCDKTHTCPPCPAPELRGGPKVFLFPPKPKDTLYITREPEVTCVVVDVSHEDPEVKFNWYVDGVEVHNAKTKPREEQYNSTYRVVSVLTVLHQDWLNGKEYKCKVSNKALPAPIEKTISKAKGQPREPQVYTLPPSRDELTKNQVSLTCLVKGFYPSDIAVEWESNGQPENNYKTTPPVLDSDGSFFLYSKLTVDKSRWQQGNVFSCSVMHEALHYHTTKKELSLSP
light: not shown
notes: EU numbering; copies: 2 + 2
B10: IgG1-F1351 (antibody)
heavy: QVQLQESGPGLVKPSETLSLTCAVSGHSISHDHAWSWVRQPPGEGLEWIGFISYSGITNYNPSLQGRVTISRDNSKNTLYLQMNSLRAEDTAVYYCARSLARTTAMDYWGEGTLVTVSSASTKGPSVFPLAPSSKSTSGGTAALGCLVKDYFPEPVTVSWNSGALTSGVHTFPAVLQSSGLYSLSSVVTVPSSSLGTQTYICNVNHKPSNTKVDKKVEPKSCDKTHTCPPCPAPELRGGPKVFLFPPKPKDTLYISRTPEVTCVVVDVSHEDPEVKFNWYVDGVEVHNAKTKPREEQYNSTYRVVSVLTVLHQDWLNGKEYKCKVSNKALPAPIEKTISKAKGQPREPQVYTLPPSRDELTKNQVSLTCLVKGFYPSDIAVEWESNGQPENNYKTTPPVLDSDGSFFLYSKLTVDKSRWQQGNVFSCSVMHEALHYHFTRKELSLSP
light: not shown
notes: EU numbering; copies: 2 + 2
B11: IgG1-F1346 (antibody)
heavy: QVQLQESGPGLVKPSETLSLTCAVSGHSISHDHAWSWVRQPPGEGLEWIGFISYSGITNYNPSLQGRVTISRDNSKNTLYLQMNSLRAEDTAVYYCARSLARTTAMDYWGEGTLVTVSSASTKGPSVFPLAPSSKSTSGGTAALGCLVKDYFPEPVTVSWNSGALTSGVHTFPAVLQSSGLYSLSSVVTVPSSSLGTQTYICNVNHKPSNTKVDKKVEPKSCDKTHTCPPCPAPELRRGPKVFLFPPKPKDTLYITRTPEVTCVVVDVSHEDPEVKFNWYVDGVEVHNAKTKPREEQYNSTYRVVSVLTVLHQDWLNGKEYKCKVSNKALPAPIEKTISKAKGQPREPQVYTLPPSRDELTKNQVSLTCLVKGFYPSDIAVEWESNGQPENNYKTTPPVLDSDGSFFLYSKLTVDKSRWQQGNVFSCSVMHEALHYHVTKKELSLSP
light: not shown
notes: EU numbering; copies: 2 + 2
B12: IgG1-F1344 (antibody)
heavy: QVQLQESGPGLVKPSETLSLTCAVSGHSISHDHAWSWVRQPPGEGLEWIGFISYSGITNYNPSLQGRVTISRDNSKNTLYLQMNSLRAEDTAVYYCARSLARTTAMDYWGEGTLVTVSSASTKGPSVFPLAPSSKSTSGGTAALGCLVKDYFPEPVTVSWNSGALTSGVHTFPAVLQSSGLYSLSSVVTVPSSSLGTQTYICNVNHKPSNTKVDKKVEPKSCDKTHTCPPCPAPELRGGPKVFLFPPKPKDTLYISRTPEVTCVVVDVSHEDPEVKFNWYVDGVEVHNAKTKPREEQYNSTYRVVSVLTVLHQDWLNGKEYKCKVSNKALPAPIEKTISKAKGQPREPQVYTLPPSRDELTKNQVSLTCLVKGFYPSDIAVEWESNGQPENNYKTTPPVLDSDGSFFLYSKLTVDKSRWQQGNVFSCSVMHEALHYHTTKKELSLSP
light: not shown
notes: EU numbering; copies: 2 + 2

The target in this assay is T1, soluble human FcRn (human, UniProt P55899 24-297; P61769 21-119).
T1 construct: Heterodimer of FcRn alpha chain and beta2-microglobulin; also called hFcRn
T1 sequence (P55899 24-297 limits assumed, chain 1 of 2): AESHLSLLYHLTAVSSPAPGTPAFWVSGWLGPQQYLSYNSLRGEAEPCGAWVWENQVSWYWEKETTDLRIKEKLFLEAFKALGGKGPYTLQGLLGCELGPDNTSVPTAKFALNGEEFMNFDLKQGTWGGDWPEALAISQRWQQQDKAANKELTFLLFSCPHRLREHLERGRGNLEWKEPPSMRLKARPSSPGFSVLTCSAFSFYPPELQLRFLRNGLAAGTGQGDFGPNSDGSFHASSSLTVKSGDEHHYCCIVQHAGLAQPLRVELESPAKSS
T1 sequence (P61769 21-119 limits assumed, chain 2 of 2): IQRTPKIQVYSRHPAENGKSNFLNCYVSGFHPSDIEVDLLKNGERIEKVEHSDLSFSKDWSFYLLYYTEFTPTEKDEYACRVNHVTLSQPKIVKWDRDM
Briefly: SPR (Biacore T100), antibody captured by protein L, hFcRn as analyte, pH 7.0, 25 C.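 Note: KD calculated from fitted association and dissociation rate constants of the sensorgrams, protein L amine-coupled to the sensor chip, sodium phosphate running buffer with NaCl and Tween20.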 A general note: Surface plasmon resonance follows binding to a sensor surface in real time, without labels.
The molecule B1 came in with a Kd of 56 nM.

B2 gave a Kd of 55 nM.

In turn, B3 gave a Kd of 250 nM.

B4 displayed a Kd of 320 nM.

Regarding B5, the Kd was 100 nM.

In turn, B6 had a Kd of 340 nM.

Consider B7, for which the Kd amounted to 71 nM.

As to B8, the Kd came to 120 nM. Against the preceding molecule, the Kd is about 1.7-fold higher.

B9 registered a Kd of 200 nM.

In turn, B10 gave a Kd of 160 nM. This Kd and that of the molecule before are within 1.5-fold of each other.

Molecule B11 came in with a Kd of 86 nM.

Turning to B12, the Kd was determined as 400 nM.
